Test results from patent publication US20240124553A1.

Columns and labels:
Test in all cases: flow cytometry, transfected 293T cells
[1] = target: CHIKV E2-6K-E1 envelope proteins (strain S27) with E2 T196A (Chikungunya virus strain S27) (UniProt Q8JUX5)
[2] = target: CHIKV E2-6K-E1 envelope proteins (strain S27) with E2 V188A (Chikungunya virus strain S27) (UniProt Q8JUX5)
[3] = target: CHIKV E2-6K-E1 envelope proteins (strain S27) with E2 C201A (Chikungunya virus strain S27) (UniProt Q8JUX5)
[4] = target: CHIKV E2-6K-E1 envelope proteins (strain S27) with E2 T191A (Chikungunya virus strain S27) (UniProt Q8JUX5)
[5] = target: CHIKV E2-6K-E1 envelope proteins (strain S27) with E2 K215A (Chikungunya virus strain S27) (UniProt Q8JUX5)
[6] = target: CHIKV E2-6K-E1 envelope proteins (strain S27) with E2 I190A (Chikungunya virus strain S27) (UniProt Q8JUX5)

Mxra8-Fc (mouse Mxra8 extracellular domain fused to mouse IgG2b Fc) (Fc fusion)
Binding Reactivity (% WT) [1]: 86.6 % WT
Binding Reactivity (% WT) [2]: 55.2 % WT
Binding Reactivity (% WT) [3]: 9.6 % WT
Binding Reactivity (% WT) [4]: 87.4 % WT
Binding Reactivity (% WT) [5]: 106 % WT
Binding Reactivity (% WT) [6]: 9.4 % WT
